{
  "source": "paper PMC7558102",
  "about": "“Hybrid Multimodal Imaging Synthons for Chemoselective and Efficient Biomolecule Modification with Chelator and Near-Infrared Fluorescent Cyanine Dye” (Pharmaceuticals, 2020)",
  "key": {"[1]": {"experiment": "water/1-octanol partition coefficients (logD) of 68Ga-labeled compounds, γ-counting", "assay_type": "physicochemical", "conditions": "pH 7.4", "protocol": "The mixtures were vigorously shaken for 5 min on a vibrating plate. After subsequent centrifugation at 13,000 rpm for 5 min, 125 µL was taken from each phase and measured in a γ-counter. The logD values were calculated from three or four independent experiments, each performed in triplicate. For 18, the logD was determined by semipreparative HPLC. For this purpose, a solution of 18 (10 µL, c = 5 × 10^−4 mol/L) in water was added to a mixture of 1 mL 1-octanol and 990 µL phosphate buffered solution (0.05 M, pH 7.4) and vigorously shaken for 5 min. After centrifugation, the phases were separated and both phases were analyzed by semipreparative HPLC and the peaks of the UV signals at 214 nm were integrated. The logD was determined by three separate measurements, each experiment performed in triplicate."}, "[2]": {"experiment": "photophysical properties (absorbance and emission measurements)", "assay_type": "physicochemical", "conditions": "for λmax(em): excitation wavelength λex = 650 nm", "protocol": "Finally, the photophysical properties were determined for dyes, MIS and their conjugates. It could be shown that the photophysical properties remained largely unaltered, including absorption coefficients and emission characteristics (Table 1). […] The only change in photophysical properties we qualitatively observed was an increase in the quantum yields of the dye conjugates compared to their unconjugated leads 1–3, an effect that was described before and can be attributed to the conjugation of sterically demanding groups (such as the PESIN homodimers used here), resulting in a decrease in aggregation of the dye molecules and thus a reduced fluorescence quenching. γ-Counting was performed using a 2480 Wizard gamma counter system from Perkin Elmer. A Cary 100 Bio system (Varian) was used to record the UV/Vis-Spectra together with 4 mL PMMA cuvettes from Sigma-Aldrich. Furthermore, for absorbance and emission measurements, a Tecan Infinite M200 Microplate reader together with a Nunc Micro-Well 96 solid plate from ThermoFisher was used."}},
  "note": "Where two headings read alike, the source gives them in different places.",
  "data": [
    {"compound": "CC1(C)C(/C=C/C2=C(c3ccc(C(=O)NCCCC[C@H](NC(=O)CC[C@H](C(=O)O)N4CCN(CC(=O)O)CCN(CC(=O)O)CC4)C(=O)N[C@@H](CS)C(N)=O)cc3)C(=C/C=C3/N(CCCCS(=O)(=O)[O-])c4ccc5ccccc5c4C3(C)C)/CCC2)=[N+](CCCCS(=O)(=O)O)c2ccc3ccccc3c21", "note": "(single isomer, unassigned) [[68Ga]Ga-10, metal not drawn]", "values": [
      {"measurement": "logD", "setting": "[1]", "result": "-1.29 ± 0.11"}
    ]},
    {"compound": "CC1(C)C(=CC=C2CCCC(C=CC3=[N+](CCCCS(=O)(=O)[O-])c4ccc(C(=O)NCCCC[C@H](NC(=O)CC[C@H](C(=O)O)N5CCN(CC(=O)O)CCN(CC(=O)O)CC5)C(=O)N[C@@H](CS)C(N)=O)cc4C3(C)C)=C2c2ccccc2)N(CCCCS(=O)(=O)O)c2ccc(S(=O)(=O)O)cc21", "note": "(single isomer, unassigned) [[68Ga]Ga-11, metal not drawn]", "values": [
      {"measurement": "logD", "setting": "[1]", "result": "-3.05 ± 0.08"}
    ]},
    {"compound": "CC1(C)C(=CC=C2CCCC(C=CC3=[N+](CCCCS(=O)(=O)[O-])c4ccc(S(=O)(=O)O)cc4C3(C)C)=C2c2ccc(CCC(=O)NCCCC[C@H](NC(=O)CC[C@H](C(=O)O)N3CCN(CC(=O)O)CCN(CC(=O)O)CC3)C(=O)N[C@@H](CS)C(N)=O)cc2)N(CCCCS(=O)(=O)O)c2ccc(S(=O)(=O)O)cc21", "note": "(single isomer, unassigned) [[68Ga]Ga-12, metal not drawn]", "values": [
      {"measurement": "logD", "setting": "[1]", "result": "-3.47 ± 0.17"}
    ]},
    {"compound": "CC1(C)C(/C=C/C2=C(c3ccc(C(=O)NCCCC[C@H](NC(=O)CC[C@H](C(=O)O)N4CCN(CC(=O)O)CCN(CC(=O)O)CC4)C(=O)N[C@@H](CS)C(N)=O)cc3)C(=C/C=C3/N(CCCCS(=O)(=O)[O-])c4ccc5ccccc5c4C3(C)C)/CCC2)=[N+](CCCCS(=O)(=O)O)c2ccc3ccccc3c21", "note": "[Compound 10]", "values": [
      {"measurement": "logD", "setting": "[1]", "result": "−1.29 ± 0.11"}
    ]},
    {"compound": "CC1(C)C(=CC=C2CCCC(C=CC3=[N+](CCCCS(=O)(=O)[O-])c4ccc(C(=O)NCCCC[C@H](NC(=O)CC[C@H](C(=O)O)N5CCN(CC(=O)O)CCN(CC(=O)O)CC5)C(=O)N[C@@H](CS)C(N)=O)cc4C3(C)C)=C2c2ccccc2)N(CCCCS(=O)(=O)O)c2ccc(S(=O)(=O)O)cc21", "note": "[Compound 11]", "values": [
      {"measurement": "logD", "setting": "[1]", "result": "−3.05 ± 0.08"}
    ]},
    {"compound": "CC1(C)C(=CC=C2CCCC(C=CC3=[N+](CCCCS(=O)(=O)[O-])c4ccc(S(=O)(=O)O)cc4C3(C)C)=C2c2ccc(CCC(=O)NCCCC[C@H](NC(=O)CC[C@H](C(=O)O)N3CCN(CC(=O)O)CCN(CC(=O)O)CC3)C(=O)N[C@@H](CS)C(N)=O)cc2)N(CCCCS(=O)(=O)O)c2ccc(S(=O)(=O)O)cc21", "note": "[Compound 12]", "values": [
      {"measurement": "logD", "setting": "[1]", "result": "−3.47 ± 0.17"}
    ]},
    {"compound": "CSCC[C@H](NC(=O)[C@H](CC(C)C)NC(=O)[C@H](Cc1c[nH]cn1)NC(=O)CNC(=O)[C@@H](NC(=O)[C@H](C)NC(=O)[C@H](Cc1c[nH]c2ccccc12)NC(=O)[C@H](CCC(N)=O)NC(=O)CCOCCOCCOCCOCCNC(=O)CON=Cc1ccc(C(=O)NCCCN(CCCNC(=O)c2ccc(C=NOCC(=O)NCCOCCOCCOCCOCCC(=O)N[C@@H](CCC(N)=O)C(=O)N[C@@H](Cc3c[nH]c4ccccc34)C(=O)N[C@@H](C)C(=O)N[C@H](C(=O)NCC(=O)N[C@@H](Cc3c[nH]cn3)C(=O)N[C@@H](CC(C)C)C(=O)N[C@@H](CCSC)C(N)=O)C(C)C)cc2)CC(=O)N[C@H](CSC2CC(=O)N(CCN3C(=O)CC(SC[C@H](NC(=O)[C@H](CCCCNC(=O)c4ccc(C5=C(C=CC6=[N+](CCCCS(=O)(=O)[O-])c7ccc8ccccc8c7C6(C)C)CCCC5=CC=C5N(CCCCS(=O)(=O)O)c6ccc7ccccc7c6C5(C)C)cc4)NC(=O)CC[C@H](C(=O)O)N4CCN(CC(=O)O)CCN(CC(=O)O)CC4)C(N)=O)C3=O)C2=O)C(=O)NCCOCCOCC(N)=O)cc1)C(C)C)C(N)=O", "note": "(stereo partly drawn) [Compound 14]", "values": [
      {"measurement": "Stokes Shift", "setting": "[2]", "result": 10, "unit": "nm"},
      {"measurement": "λmax(abs)", "setting": "[2]", "result": "735/810"},
      {"measurement": "λmax(em)", "setting": "[2]", "result": 820, "unit": "nm"}
    ]},
    {"compound": "CSCC[C@H](NC(=O)[C@H](CC(C)C)NC(=O)[C@H](Cc1c[nH]cn1)NC(=O)CNC(=O)[C@@H](NC(=O)[C@H](C)NC(=O)[C@H](Cc1c[nH]c2ccccc12)NC(=O)[C@H](CCC(N)=O)NC(=O)CCOCCOCCOCCOCCNC(=O)CON=Cc1ccc(C(=O)NCCCN(CCCNC(=O)c2ccc(C=NOCC(=O)NCCOCCOCCOCCOCCC(=O)N[C@@H](CCC(N)=O)C(=O)N[C@@H](Cc3c[nH]c4ccccc34)C(=O)N[C@@H](C)C(=O)N[C@H](C(=O)NCC(=O)N[C@@H](Cc3c[nH]cn3)C(=O)N[C@@H](CC(C)C)C(=O)N[C@@H](CCSC)C(N)=O)C(C)C)cc2)CC(=O)N[C@H](CSC2CC(=O)N(CCN3C(=O)CC(SC[C@H](NC(=O)[C@H](CCCCNC(=O)c4ccc5c(c4)C(C)(C)C(C=CC4=C(c6ccccc6)C(=CC=C6N(CCCCS(=O)(=O)O)c7ccc(S(=O)(=O)O)cc7C6(C)C)CCC4)=[N+]5CCCCS(=O)(=O)[O-])NC(=O)CC[C@H](C(=O)O)N4CCN(CC(=O)O)CCN(CC(=O)O)CC4)C(N)=O)C3=O)C2=O)C(=O)NCCOCCOCC(N)=O)cc1)C(C)C)C(N)=O", "note": "(stereo partly drawn) [Compound 15]", "values": [
      {"measurement": "Stokes Shift", "setting": "[2]", "result": 30, "unit": "nm"},
      {"measurement": "λmax(abs)", "setting": "[2]", "result": "705/770"},
      {"measurement": "λmax(em)", "setting": "[2]", "result": 800, "unit": "nm"}
    ]},
    {"compound": "CSCC[C@H](NC(=O)[C@H](CC(C)C)NC(=O)[C@H](Cc1c[nH]cn1)NC(=O)CNC(=O)[C@@H](NC(=O)[C@H](C)NC(=O)[C@H](Cc1c[nH]c2ccccc12)NC(=O)[C@H](CCC(N)=O)NC(=O)CCOCCOCCOCCOCCNC(=O)CON=Cc1ccc(C(=O)NCCCN(CCCNC(=O)c2ccc(C=NOCC(=O)NCCOCCOCCOCCOCCC(=O)N[C@@H](CCC(N)=O)C(=O)N[C@@H](Cc3c[nH]c4ccccc34)C(=O)N[C@@H](C)C(=O)N[C@H](C(=O)NCC(=O)N[C@@H](Cc3c[nH]cn3)C(=O)N[C@@H](CC(C)C)C(=O)N[C@@H](CCSC)C(N)=O)C(C)C)cc2)CC(=O)N[C@H](CSC2CC(=O)N(CCN3C(=O)CC(SC[C@H](NC(=O)[C@H](CCCCNC(=O)CCc4ccc(C5=C(C=CC6=[N+](CCCCS(=O)(=O)[O-])c7ccc(S(=O)(=O)O)cc7C6(C)C)CCCC5=CC=C5N(CCCCS(=O)(=O)O)c6ccc(S(=O)(=O)O)cc6C5(C)C)cc4)NC(=O)CC[C@H](C(=O)O)N4CCN(CC(=O)O)CCN(CC(=O)O)CC4)C(N)=O)C3=O)C2=O)C(=O)NCCOCCOCC(N)=O)cc1)C(C)C)C(N)=O", "note": "(stereo partly drawn) [Compound 16]", "values": [
      {"measurement": "Stokes Shift", "setting": "[2]", "result": 20, "unit": "nm"},
      {"measurement": "λmax(abs)", "setting": "[2]", "result": "700/770"},
      {"measurement": "λmax(em)", "setting": "[2]", "result": 790, "unit": "nm"}
    ]},
    {"compound": "NC(=O)C(CS)NC(=O)CNC(=O)CCC(C(=O)O)N1CCN(CC(=O)O)CCN(CC(=O)O)CC1", "note": "(stereo not drawn) [Compound 19, NH2-Cys-Gly-NODA-GA]", "values": [
      {"measurement": "logD", "setting": "[1]; 68Ga-labeled compound, 1-octanol / phosphate buffer 0.05 M, read-out: logD", "result": "-3.35 ± 0.15"}
    ]},
    {"compound": "CSCC[C@H](NC(=O)[C@H](CC(C)C)NC(=O)[C@H](Cc1c[nH]cn1)NC(=O)CNC(=O)[C@@H](NC(=O)[C@H](C)NC(=O)[C@H](Cc1c[nH]c2ccccc12)NC(=O)[C@H](CCC(N)=O)NC(=O)CCOCCOCCOCCOCCNC(=O)CON=Cc1ccc(C(=O)NCCCN(CCCNC(=O)c2ccc(C=NOCC(=O)NCCOCCOCCOCCOCCC(=O)N[C@@H](CCC(N)=O)C(=O)N[C@@H](Cc3c[nH]c4ccccc34)C(=O)N[C@@H](C)C(=O)N[C@H](C(=O)NCC(=O)N[C@@H](Cc3c[nH]cn3)C(=O)N[C@@H](CC(C)C)C(=O)N[C@@H](CCSC)C(N)=O)C(C)C)cc2)CC(=O)N[C@H](CSC2CC(=O)N(CCN3C(=O)CC(SC[C@H](NC(=O)[C@H](CCCCNC(=O)c4ccc(C5=C(C=CC6=[N+](CCCCS(=O)(=O)[O-])c7ccc8ccccc8c7C6(C)C)CCCC5=CC=C5N(CCCCS(=O)(=O)O)c6ccc7ccccc7c6C5(C)C)cc4)NC(=O)CC[C@H](C(=O)O)N4CCN(CC(=O)O)CCN(CC(=O)O)CC4)C(N)=O)C3=O)C2=O)C(=O)NCCOCCOCC(N)=O)cc1)C(C)C)C(N)=O", "note": "(stereo partly drawn) [[68Ga]Ga-14, metal not drawn]", "values": [
      {"measurement": "logD", "setting": "[1]", "result": "-1.33 ± 0.04"}
    ]},
    {"compound": "CSCC[C@H](NC(=O)[C@H](CC(C)C)NC(=O)[C@H](Cc1c[nH]cn1)NC(=O)CNC(=O)[C@@H](NC(=O)[C@H](C)NC(=O)[C@H](Cc1c[nH]c2ccccc12)NC(=O)[C@H](CCC(N)=O)NC(=O)CCOCCOCCOCCOCCNC(=O)CON=Cc1ccc(C(=O)NCCCN(CCCNC(=O)c2ccc(C=NOCC(=O)NCCOCCOCCOCCOCCC(=O)N[C@@H](CCC(N)=O)C(=O)N[C@@H](Cc3c[nH]c4ccccc34)C(=O)N[C@@H](C)C(=O)N[C@H](C(=O)NCC(=O)N[C@@H](Cc3c[nH]cn3)C(=O)N[C@@H](CC(C)C)C(=O)N[C@@H](CCSC)C(N)=O)C(C)C)cc2)CC(=O)N[C@H](CSC2CC(=O)N(CCN3C(=O)CC(SC[C@H](NC(=O)[C@H](CCCCNC(=O)c4ccc5c(c4)C(C)(C)C(C=CC4=C(c6ccccc6)C(=CC=C6N(CCCCS(=O)(=O)O)c7ccc(S(=O)(=O)O)cc7C6(C)C)CCC4)=[N+]5CCCCS(=O)(=O)[O-])NC(=O)CC[C@H](C(=O)O)N4CCN(CC(=O)O)CCN(CC(=O)O)CC4)C(N)=O)C3=O)C2=O)C(=O)NCCOCCOCC(N)=O)cc1)C(C)C)C(N)=O", "note": "(stereo partly drawn) [[68Ga]Ga-15, metal not drawn]", "values": [
      {"measurement": "logD", "setting": "[1]", "result": "-2.48 ± 0.14"}
    ]}
  ]
}
